# In IntAct's records for PubMed 19515790:
# B1: Protein root UVB sensitive 1, chloroplastic (Arabidopsis thaliana (Mouse-ear cress)), Q7X6P3 (parent)
# chain: MSCSYLLSGDASVVASRRWSDVSSRQRLFLPRQSLRQPSGSSFSRCVRLVANVNDHFSKQSLATRNCLASVFSADLGGSNGNNDNGNGGGGGGDGGGDNSDDSSFDLRYLCFLLLGLSCFFHFRLSAASAIAKDQNSDSNGDAVKETVWEVRGSKRKRLVPDFVKDEFVSEESAFELSSSLTPENLLAQCRNLLTQFLLPEGFPNSVTSDYLDYSLWRGVQGIASQISGVLATQSLLYAVGLGKGAIPTAAAINWVLKDGIGYLSKIMLSKYGRHFDVHPKGWRLFADLLENAAFGMEMLTPVFPQFFVMIGAAAGAGRSAAALIQAATRSCFNAGFASQRNFAEVIAKGEAQGMVSKSVGILLGIVVANCIGTSTSLALAAFGVVTTIHMYTNLKSYQCIQLRTLNPYRASLVFSEYLISGQAPLIKEVNDEEPLFPTVRFSNMKSPEKLQDFVLSSEAKAAAADIEERLQLGSKLSDVIHNKEEAIALFDLYRNEGYILTEHKGRFCVMLKESSTPQDMLRSLFQVNYLYWLEKNAGIEPASTYSDCKPGGRLHISLDYVRREFEHAKEDSESVGWVTEGLIARPLPTRIRLGHDRELLLSSPNSS
# partner: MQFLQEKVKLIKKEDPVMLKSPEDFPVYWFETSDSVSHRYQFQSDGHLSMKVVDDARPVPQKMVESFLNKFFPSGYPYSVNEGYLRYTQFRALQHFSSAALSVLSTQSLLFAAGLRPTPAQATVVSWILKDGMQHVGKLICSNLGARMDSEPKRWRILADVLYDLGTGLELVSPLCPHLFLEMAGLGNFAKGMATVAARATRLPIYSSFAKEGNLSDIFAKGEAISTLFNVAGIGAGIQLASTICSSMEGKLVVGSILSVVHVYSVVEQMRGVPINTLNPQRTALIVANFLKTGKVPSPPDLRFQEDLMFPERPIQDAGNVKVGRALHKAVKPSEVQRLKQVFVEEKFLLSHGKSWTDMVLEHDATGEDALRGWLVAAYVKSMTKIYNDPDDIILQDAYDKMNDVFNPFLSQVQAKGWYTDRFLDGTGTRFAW
# Variants of: B1
# Conditions: with rus2_arath RUS2, Q9SJX7
row,Variant,effect of a mutation on the interaction
1,K349G,disrupting interaction
2,E298G,decreasing interaction
3,N342G,decreasing interaction
4,K281G,disrupting interaction
